Consider three molecules from patent publication US20040175720A1 (NEW YORK UNIVERSITY, published 2004).

B1: LexA-fusion of full-length cTRα (receptor, UniProt P0A7C2 1-202, looked up)
chain: MKALTARQQEVFDLIRDHISQTGMPPTRAEIAQRLGFRSPNAAEEHLKALARKGVIEIVSGASRGIRLLQEEEEGLPLVGRVAAGEPLLAQQHIEGHYQVDPSLFKPNADFLLRVSGMSMKDIGIMDGDLLAVHKTQDVRNGQVVVARIDDEVTVKRLKKQGNKVELLPENSEFKPIVVDLRQQSFTIEGLAVGVIRNGDWLMEQKPSTLDPLSEPEDTRWLDGKRKRKSSQCLVKSSMSGYIPSYLDKDEQCVVCGDKATGYHYRCITCEGCKGFFRRTIQKNLHPTYSCKYDGCCVIDKITRNQCQLCRFKKCISVGMAMDLVLDDSKRVAKRKLIEENRERRRKEEMIKSLQHRPSPSAEEWELIHVVTEAHRSTNAQGSHWKQKRKFLPEDIGQSPMASMPDGDKVDLEAFSEFTKIITPAITRVVDFAKKLPMFSELPCEDQIILLKGCCMEIMSLRAAVRYDPESETLTLSGEMAVKREQLKNGGLGVVSDAIFDLGKSLSAFNLDDTEVALLQAVLLMSSDRTGLICVDKIEKCQETYLLAFEHYINYRKHNIPHFWPKLLMKVTDLRMIGACHASRFLHMKVECPTELFPPLFLEVFEDQEV
notes: domain: LexA DBD;mature
B2: NIF-1 (NRC Interacting Factor-1), full-length human, untagged (other)
chain: MEENEVESSSDAAPGPGRPEEPSESGLGVGTSEAVSADSSDAAAAPGQAEADDSGVGQSSDRGSRSQEEVSESSSSADPLPNSYLPDSSSVSHGPVAGVTGGPPALVHSSALPDPNMLVSDCTASSSDLGSAIDKIIESTIGPDLIQNCITVTSAEDGGAETTRYLILQGPDDGAPMTSPMSSSTLAHSLAAIEALADGPTSTSTCLEAQGGPSSPVQLPPASGAEEPDLQSLEAMMEVVVVQQFKCKMCQYRSSTKATLLRHMRERHFRPVAAAAAAAGKKGRLRKWSTSTKSQEEEGPEEEDDDDIVDAGAIDDLEEDSDYNPAEDEPRGRQLRLQRPTPSTPRPRRRPGRPRKLPRLEISDLPDGVEGEPLVSSQSGQSPPEPQDPEAPSSSGPGHLVAMGKVSRTPVEAGVSQSDAENAAPSCPDEHDTLPRRRGRPSRRFLGKKYRKYYYKSPKPLLRPFLCRICGSRFLSHEDLRFHVNSHEAGDPQLFKCLQCSYRSRRWSSLKEHMFNHVGSKPYKCDECSYTSVYRKDVIRHAAVHSRDRKKRPDPTPKLSSFPCPVCGRVYPMQKRLTQHMKTHSTEKPHMCDKCGKSFKKRYTFKMHLLTHIQAVANRRFKCEFCEFVCEDKKALLNHQLSHVSDKPFKCSFCPYRTFREDFLLSHVAVKHTGAKPFACEYCHFSTRHKKNLRLHVRCRHASSFEEWGRRHPEEPPSRRRPFFSLQQIEELKQQHSAAPGPPPSSPGPPEIPPEATTFQSSEAPSLLCSDTLGGATIIYQQGAEESTAMATQTALDLLLNMSAQRELGGTALQVAVVKSEDVEAGLASPGGQPSPEGATPQVVTLHVAEPGGGAAAESQLGPPDLPQITLAPGPFGGTGYSVITAPPMEEGTSAPGTPYSEEPAGEAAQAVVVSDTLKEAGTHYIMATDGTQLHHIELTADGSISFPSPDALASGAKWPLLQCGGLPRDGPEPPSPAKTHCVGDSQSSASSPPATSKALGLAVPPSPPSAATAASKKFSCKICAEAFPGRAEMESHKRAHAGPGAFKCPDCPFSARQWPEVRAHMAQHSSLRPHQCSQCSFASKNKKDLRRHMLTHTKEKPFACHLCGQRFNRNGHLKFHIQRLHSPDGRKSGTPTARAPTQTPTQTIILNSDDETLATLHTALQSSHGVLGPERLQQALSQEHIIVAQEQTVTNQEEAAYIQEITTADGQTVQHLVTSDNQVQYIISQDGVQHLLPQEYVVVPEGHHIQVQEGQITHIQYEQGAPFLQESQIQYVPVSPGQQLVTQAQLEAAAHSAVTAVADAAMAQAQGLFGTDETVPEHIQQLQHQGIEYDVITLADD
modifications: ^35S-L-methionine label in the in vitro binding assay
B3: B42-NIF-1 (full-length), B42 activation domain fusion expressed from pJG4-5 in yeast (other, not shown: large carriers)
chain: B2 chain
notes: also called NIF-1 expressed as a B42-fusion

Assay [1] deals with B3. Kind of assay: yeast two-hybrid, B42-NIF-1 (full-length) against LexA full-length cTRα. Here is the method:
To examine for this possibility, the interaction of B42-NIF-1 (full-length), conditionally expressed from pJG4-5, was studied with LexA fusions of nuclear receptor LBDs (cTRα, ERa, RXRα, GR, RARα, and PPARα) in yeast, as shown in FIG. 7. In addition, a LexA-fusion of full-length cTRα was also tested against B42-NIF-1 (full-length) and gave similar results as with the cTRα LBD. […] To document that the LexA-LBD fusions were expressed and responded to ligand in yeast, similar studies were carried out with B42-NRC.

Assay [2] has as its target Human NRC expressed from pEX-NRC in HeLa cells (human, UniProt Q14686 1-2063). Kind of assay: cell-based or functional assay.
Assay [3] deals with T1, LexA-NRC-b (LexA DBD fused to NRC amino acids 849-2063), bait of the two-hybrid screen (UniProt P0A7C2 1-202; Q14686 849-2063).
T1 construct: domain: LexA DBD;range 849-2063
Kind of assay: yeast two-hybrid, LexA-NRC fusions against B42-NIF-1 constructs (FIG. 6A). An excerpt: Cell. Biol. 20:5048-5063 (2000), which is hereby incorporated by reference in its entirety). The yeast strain EGY48 harboring the LacZ reporter pSH1 8-34 (Gyuris et al., “Cdi1, A Human G1 and S Phase Protein Phosphatase that Associates with Cdk2,” Cell 75:791-803 (1993), which is hereby incorporated by reference in its entirety), and pEG202ΔPL-NRC-b was transformed with the GH4C1 pJG4-5 cDNA library. Transformants were directly screened on X-gal SD-galactose-raffinose plates lacking trp, ura, his, and leu. Putative positive clones were further purified on trp⁻, ura⁻, his⁻, and leu⁻ SD-galactose-raffinose plates. The purified clones were plated on SD-dextrose/trp⁻, ura^{-,} his⁻ plates to repress the expression of cDNAs from pJG4-5. Galactose-inducible interactions were verified upon replica plating each clone on trp⁻, ura⁻, his⁻, leu⁻ X-gal SD-galactose-raffinose and trp⁻, ura⁻, his⁻ X-gal SD-dextrose plates. […] The putative cDNAs from positive clones were further verified against several different baits. The positive interactors were then sequenced and subjected to restriction digestion, size determination, and further analysis.
Various regions of NRC were expressed as LexA fusions in yeast (designated as rows “a-g” in FIG. 6A) and their interaction compared with full-length NIF-1, NIF-2, and various deletions of NIF-1 conditionally expressed from pJG4-5. […]

Human NRC expressed from pEX-NRC in HeLa cells, sequence (Q14686 whole entry, the tested form may be a part): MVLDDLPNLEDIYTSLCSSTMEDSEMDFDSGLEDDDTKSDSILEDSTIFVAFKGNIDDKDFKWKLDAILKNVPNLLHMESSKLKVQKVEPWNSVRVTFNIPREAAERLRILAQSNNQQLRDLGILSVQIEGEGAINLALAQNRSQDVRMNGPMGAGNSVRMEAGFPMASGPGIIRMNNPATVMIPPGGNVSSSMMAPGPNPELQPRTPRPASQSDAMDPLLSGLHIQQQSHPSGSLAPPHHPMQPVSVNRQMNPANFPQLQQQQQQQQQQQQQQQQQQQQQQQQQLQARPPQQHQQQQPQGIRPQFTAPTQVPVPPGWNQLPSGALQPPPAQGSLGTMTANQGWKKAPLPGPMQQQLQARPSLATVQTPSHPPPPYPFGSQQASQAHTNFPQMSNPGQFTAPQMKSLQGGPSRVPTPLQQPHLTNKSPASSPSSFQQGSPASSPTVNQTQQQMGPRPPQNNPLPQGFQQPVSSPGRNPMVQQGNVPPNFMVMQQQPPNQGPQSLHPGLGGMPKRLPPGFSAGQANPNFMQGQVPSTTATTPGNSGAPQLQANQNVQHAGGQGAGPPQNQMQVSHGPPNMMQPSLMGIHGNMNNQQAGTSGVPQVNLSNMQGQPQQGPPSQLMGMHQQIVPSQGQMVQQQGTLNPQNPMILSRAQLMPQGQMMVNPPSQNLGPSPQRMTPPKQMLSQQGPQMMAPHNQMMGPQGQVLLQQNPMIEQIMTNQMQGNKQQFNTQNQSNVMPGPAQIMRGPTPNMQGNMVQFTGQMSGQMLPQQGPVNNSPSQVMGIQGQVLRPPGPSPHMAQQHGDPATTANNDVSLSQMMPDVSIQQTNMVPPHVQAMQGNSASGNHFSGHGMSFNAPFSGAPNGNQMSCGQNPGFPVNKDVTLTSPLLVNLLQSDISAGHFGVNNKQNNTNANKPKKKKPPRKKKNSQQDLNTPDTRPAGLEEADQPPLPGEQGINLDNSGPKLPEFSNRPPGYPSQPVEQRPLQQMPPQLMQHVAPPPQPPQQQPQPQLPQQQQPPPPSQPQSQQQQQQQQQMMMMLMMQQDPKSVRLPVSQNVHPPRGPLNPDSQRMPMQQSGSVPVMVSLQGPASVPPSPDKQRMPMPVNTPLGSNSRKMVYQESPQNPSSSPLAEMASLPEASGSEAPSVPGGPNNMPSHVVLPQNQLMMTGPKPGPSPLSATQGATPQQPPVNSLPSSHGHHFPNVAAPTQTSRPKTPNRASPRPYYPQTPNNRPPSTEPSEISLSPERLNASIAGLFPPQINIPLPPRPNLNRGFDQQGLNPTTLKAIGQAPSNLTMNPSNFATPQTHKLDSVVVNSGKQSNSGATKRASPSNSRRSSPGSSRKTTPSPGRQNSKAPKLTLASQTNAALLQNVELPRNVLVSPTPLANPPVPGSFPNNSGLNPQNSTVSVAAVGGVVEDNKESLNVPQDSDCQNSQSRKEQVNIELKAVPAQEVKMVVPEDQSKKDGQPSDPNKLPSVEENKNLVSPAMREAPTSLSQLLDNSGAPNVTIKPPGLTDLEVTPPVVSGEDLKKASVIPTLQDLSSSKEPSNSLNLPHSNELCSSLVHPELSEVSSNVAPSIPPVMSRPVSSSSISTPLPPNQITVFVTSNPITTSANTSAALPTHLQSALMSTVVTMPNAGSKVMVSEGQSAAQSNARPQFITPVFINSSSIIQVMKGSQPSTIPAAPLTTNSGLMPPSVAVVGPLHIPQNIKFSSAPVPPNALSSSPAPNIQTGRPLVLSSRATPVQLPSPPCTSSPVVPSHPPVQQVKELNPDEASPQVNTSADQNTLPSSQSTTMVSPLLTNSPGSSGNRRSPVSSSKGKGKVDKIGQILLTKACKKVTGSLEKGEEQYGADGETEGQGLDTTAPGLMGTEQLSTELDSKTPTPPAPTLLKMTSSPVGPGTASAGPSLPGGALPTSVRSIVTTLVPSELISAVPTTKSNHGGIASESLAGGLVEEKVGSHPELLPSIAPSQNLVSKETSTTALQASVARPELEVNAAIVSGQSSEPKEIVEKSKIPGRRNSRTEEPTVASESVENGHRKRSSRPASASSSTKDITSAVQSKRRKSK

On to B1, for which the binding result in assay [1] is “no binding”.
Turning to B2, in assay [2], the “activity of the -73 collagenase-CAT reporter gene in HeLa cells (fold increase)” value came to 12 fold.
In the case of B3, the binding result in assay [3] is “binds”.
